Measured values: patent US20210130436A1 (published 2021)
Values belong to the binder of their own block, whether it stands above or below them.

Assays:
[1] = target: T1, human PD-L1, expressed on cells (human, UniProt Q9NZQ7 19-290); experiment: flow cytometry on CHO/PD-L1 cells, then fluorescently conjugated PD-1-Fc (FIG. 9D)
T1 construct: On CHO/PD-L1, K562/OKT3/PD-L1 and CHO/OKT3/PD-L1 aAPC, huPD-L1-transduced MC38 cells, or primary human monocytes; also called huPD-L1; hPD-L1

PD-1-Fc = target: T2, PD-1-Fc (UniProt Q15116 25-167); experiment: ForteBio (BLI), PD-1-Fc
T2 construct: not shown: Fc not described
T2 sequence (Q15116 25-167): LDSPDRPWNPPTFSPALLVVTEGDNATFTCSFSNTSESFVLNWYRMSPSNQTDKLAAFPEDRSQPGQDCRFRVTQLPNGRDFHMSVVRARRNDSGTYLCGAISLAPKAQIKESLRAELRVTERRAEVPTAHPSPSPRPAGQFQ

CD226 = target: T3, CD226 (Homo sapiens (Human), UniProt Q15762 19-336); experiment: flow cytometry, CD226-transfected Expi293 cells
T3 construct: Expressed on transfected cells
T3 sequence: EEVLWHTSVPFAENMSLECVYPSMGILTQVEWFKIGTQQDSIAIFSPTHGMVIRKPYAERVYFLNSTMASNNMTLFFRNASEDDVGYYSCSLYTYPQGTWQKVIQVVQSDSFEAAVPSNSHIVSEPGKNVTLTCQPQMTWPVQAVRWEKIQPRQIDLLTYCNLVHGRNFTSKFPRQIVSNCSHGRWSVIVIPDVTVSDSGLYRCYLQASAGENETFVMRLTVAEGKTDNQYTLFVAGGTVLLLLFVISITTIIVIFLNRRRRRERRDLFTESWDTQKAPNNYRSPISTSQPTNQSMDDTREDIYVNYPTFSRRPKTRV

TIGIT = target: T4, TIGIT (Homo sapiens (Human), UniProt Q495A1 23-244); experiment: flow cytometry, TIGIT-transfected Expi293 cells
T4 construct: Expressed on transfected Expi293 cells; also called TIGIT tfxn
T4 sequence: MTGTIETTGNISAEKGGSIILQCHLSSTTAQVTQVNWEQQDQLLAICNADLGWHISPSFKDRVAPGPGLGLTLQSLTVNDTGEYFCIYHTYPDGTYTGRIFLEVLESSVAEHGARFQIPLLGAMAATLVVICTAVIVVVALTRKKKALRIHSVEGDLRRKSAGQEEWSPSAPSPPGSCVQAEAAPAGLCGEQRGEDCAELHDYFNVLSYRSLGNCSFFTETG

CD96 = target: T5, CD96 (UniProt P40200 22-585, limits assumed); experiment: flow cytometry on cells expressing CD96
T5 construct: whole, on cells
T5 sequence (looked up): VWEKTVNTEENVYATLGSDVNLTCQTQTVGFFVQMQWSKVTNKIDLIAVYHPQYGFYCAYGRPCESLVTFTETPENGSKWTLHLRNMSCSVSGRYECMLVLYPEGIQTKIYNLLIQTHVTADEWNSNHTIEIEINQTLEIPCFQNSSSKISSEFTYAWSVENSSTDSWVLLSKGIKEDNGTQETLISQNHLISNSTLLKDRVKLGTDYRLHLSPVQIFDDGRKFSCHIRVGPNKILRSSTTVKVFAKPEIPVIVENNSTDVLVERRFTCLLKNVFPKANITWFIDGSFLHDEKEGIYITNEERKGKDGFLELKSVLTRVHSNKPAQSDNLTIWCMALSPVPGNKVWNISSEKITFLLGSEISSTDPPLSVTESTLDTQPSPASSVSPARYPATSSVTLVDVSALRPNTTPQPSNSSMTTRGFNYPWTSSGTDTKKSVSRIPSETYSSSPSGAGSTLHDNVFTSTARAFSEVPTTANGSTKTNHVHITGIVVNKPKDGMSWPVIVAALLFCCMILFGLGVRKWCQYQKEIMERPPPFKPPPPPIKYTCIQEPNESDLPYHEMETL

human PD-L1 [2] = target: T6, human PD-L1 (human, UniProt Q9NZQ7 19-290); experiment: cell-based or functional assay
T6 sequence (Q9NZQ7 19-290): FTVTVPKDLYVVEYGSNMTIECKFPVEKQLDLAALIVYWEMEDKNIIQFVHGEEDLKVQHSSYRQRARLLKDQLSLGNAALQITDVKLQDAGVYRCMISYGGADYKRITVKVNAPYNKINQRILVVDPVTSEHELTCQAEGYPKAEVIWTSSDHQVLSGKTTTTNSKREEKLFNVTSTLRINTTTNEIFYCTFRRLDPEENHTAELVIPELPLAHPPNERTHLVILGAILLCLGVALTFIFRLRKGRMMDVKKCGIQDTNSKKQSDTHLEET

human PD-L1 [3] = target: T6, human PD-L1; experiment: flow cytometry; PD-L1 MFI over CD28 MFI
human CD28 = target: T7, human CD28 (human, UniProt P10747 19-220); experiment: flow cytometry on Jurkat cells (CD28); vs CD80 WT IgV-Fc
T7 construct: Endogenous CD28 on Jurkat/IL2 reporter cells

human CTLA-4 = target: T8, human CTLA-4 (human, UniProt P16410 36-223); experiment: flow cytometry on CHO cells stably expressing CTLA4; vs CD80 WT IgV-Fc
T8 construct: also called huCTLA4
T8 sequence (P16410 36-223): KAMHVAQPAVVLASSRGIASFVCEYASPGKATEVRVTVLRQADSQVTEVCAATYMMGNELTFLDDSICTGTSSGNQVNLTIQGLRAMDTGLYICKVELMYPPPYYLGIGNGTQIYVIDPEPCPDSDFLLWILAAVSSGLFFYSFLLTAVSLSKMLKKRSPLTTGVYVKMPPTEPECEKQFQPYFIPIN

human PD-L1 [4] = target: T6, human PD-L1; experiment: flow cytometry on CHO cells stably expressing PD-L1; vs CD80 WT IgV-Fc

T1 sequence (Q9NZQ7 19-290): as the sequence (Q9NZQ7 19-290) above

B2: PD-L2 V89D IgV-Fc (Fc fusion, not shown: a dimerising Fc or GST)
chain: LFTVTVPKELYIIEHGSNVTLECNFDTGSHVNLGAITASLQKVENDTSPHRERATLLEEQLPLGKASFHIPQVQVRDEGQYQCIIIYGDAWDYKYLTLKVKA
- Response Units (PD-1-Fc): 0.005 Response Units

B4: CD112 Y33H/N47K/Q79R/N106Y/A112V IgV-Fc (Fc fusion, not shown: a dimerising Fc or GST)
chain: QDVRVQVLPEVRGQLGGTVELPCHLLPPVPGLHISLVTWQRPDAPAKHQNVAAFHPKMGPSFPSPKPGSERLSFVSAKRSTGQDTEAELQDATLALHGLTVEDEGYYTCEFVTFPKGSVRGMTWLRV
- MFI at 100 nM (CD96): 1680 MFI

Now from value to binder:

- binding result [1]: binds
B1: CD80 variant H18Y/V22A/E35D/M47V/T62S/A71G IgV (SEQ ID NO: 2275)-Fc (inert) (Fc fusion, not shown: small tags and cut ends)
chain: VIHVTKEVKEVATLSCGYNVSAEELAQTRIYWQKDKKMVLTMMSGDVNIWPEYKNRTIFDISNNLSIVILGLRPSDEGTYECVVLKYEKDAFKREHLAEVTLSVKADEPKSSDKTHTCPPCPAPEAEGAPSVFLFPPKPKDTLMISRTPEVTCVVVDVSHEDPEVKFNWYVDGVEVHNAKTKPREEQYNSTYRVVSVLTVLHQDWLNGKEYKCKVSNKALPAPIEKTISKAKGQPREPQVYTLPPSREEMTKNQVSLTCLVKGFYPSDIAVEWESNGQPENNYKTTPPVLDSDGSFFLYSKLTVDKSRWQQGNVFSCSVMHEALHNHYTQKSLSLSPG
notes: also called H18Y/V22A/E35D/M47V/T62S/A71G CD80 IgV-Fc; CD80 vIgD-Fc

- MFI (CD226): 2000 MFI
- MFI (TIGIT): 2920 MFI
B3: variant CD112 IgV-Fc S118Y (Fc fusion)
chain: QDVRVQVLPEVRGQLGGTVELPCHLLPPVPGLYISLVTWQRPDAPANHQNVAAFHPKMGPSFPSPKPGSERLSFVSAKQSTGQDTEAELQDATLALHGLTVEDEGNYTCEFATFPKGYVRGMTWLRV
notes: IgV-Fc fusion; not shown: linker and Fc

- Fold Increase over WT CD80-IgV-Fc, Jurkat/IL2 + CHO/OKT3/PD-L1 Reporter Assay (human PD-L1 [2]): 1 fold
- Ratio of PDL1:CD28 (human PD-L1 [3]): 1.6 ratio
- Fold change to WT CD80 (human CD28): 1 fold
- Fold change to WT CD80 (human CTLA-4): 1 fold
- Fold change to WT CD80 (human PD-L1 [4]): 1 fold
B5: wild-type CD80 IgV-Fc (inert), Example 15 (Fc fusion, not shown: a dimerising Fc or GST)
chain: VIHVTKEVKEVATLSCGHNVSVEELAQTRIYWQKEKKMVLTMMSGDMNIWPEYKNRTIFDITNNLSIVILALRPSDEGTYECVVLKYEKDAFKREHLAEVTLSVKAD
notes: Inert Fc fusion; also called CD80 WT IgV-Fc
